From US20160199445A1 (CENTRE NATIONAL DE LA RECHERCHE SCIENTIFIQUE, published 2016)

Biological target: T1, Purified Arp2/3 complex
T1 construct: Used in fluorescence anisotropy, pyrene-actin and TIRF assays
Assay: fluorescence anisotropy, competition with labelled ArpinA bound to purified Arp2/3 complex

- Kd: 1030 nM
B1: ArpinA peptide (residues 211-226 of full length Arpin), unlabelled synthetic peptide (peptide)
peptide: EIREQGDGAEDEEWDD
notes: Purchased from Proteogenix; also called Arpin Acidic peptide; Acidic peptide
